Data on 1 molecule can be found in patent publication US20160017348A1.

The experiment has as its target H3K4AK9me2 peptide (UniProt P59226). Kind of experiment: ITC; reference is the H3K9me2 peptide.

B1: SHH1 SAWADEE domain (residues 125-258) (protein)
chain: ADLAFEAKSARDYAWYDVSSFLTYRVLRTGELEVRVRFSGFDNRHDEWVNVKTSVRERSIPVEPSECGRVNVGDLLLCFQEREDQALYCDGHVLNIKRGIHDHARCNCVFLVRYELDNTEESLGLERICRRPEE
B1 came in with a fold weaker affinity than with the H3K9me2 peptide of 30 fold.
